From the supplement of paper PMC7877785
± gives the uncertainty stated by the source.

Assay: self-splicing fitness, log relative to wild type (ln ratio); higher = more splicing; Tetrahymena group I intron in knt gene, E. coli kanamycin selection, DiMSum; sequences stand for … in CUCUCU…GGAGGGAAAAGUUAUCAGGCAUGCACCUGGUAGCUAGUCUUUAAACCAAUAGAUUGCAUCGGUUUAAAAGGCAAGACCGUCAAAUUGCGGGAAAGGGGUCAACAGCCGUUCAGUACCAAGUCUCAGGGGAAACUUUGAGAUGGCCUUGCAAAGGGUAUGGUAAUAAGCUGACGGACAUGGUCCUAACCACGCAGCCAAGUCCUAAGUCAACAGAUCUUCUGUUGAUAUGGAUGCAGUUCACAGACUAAAUGUCGGUCGGGGAAGAUGUAUUCUUCUCAUAAGAUAUAGUCGGACCUCUCCUUAAUGGGAGCUAGCGGAUGAAGUGAUGCAACACUGGAGCCGCUGGGAACUAAUUUGUAUGCGAAAGUAUAUUGAUUAGUUUUGGAGUACUCGUGGUCG
In short: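 Fitness was computed with DiMSum as the error-weighted combination of replicate fold changes, kanamycin versus none, each normalised to wild type. The library randomised all eight intron nucleotides of the P1ex region, with the intron placed in the knt kanamycin-resistance gene on pET-22b(+) in E. coli BL21(DE3). Six replicate transformations were grown overnight at 37°C or 30°C on LB agar with or without 25 μg/mL kanamycin, plus 100 μg/mL carbenicillin, 50 μM IPTG and 0.2% rhamnose. Pooled colonies were amplicon-sequenced on an Illumina HiSeq 2500.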

| Sequence | self-splicing fitness (ln) (30 °C) | self-splicing fitness (ln) (37 °C) |
| --- | --- | --- |
| AGGAAGCAAUAUUACGCGCG | -0.598 ± 0.21 | -0.0648 ± 0.26 |
| AGGAAGCAAUAUUACGCGGA | -2.32 ± 0.22 | -1.29 ± 0.17 |
| AGGAAGCAAUAUUACGCGUC | -3.99 ± 0.33 | -2.24 ± 0.24 |
| AGGAAGCAAUAUUACGCUGC | -3.38 ± 0.43 | – |
| AGGAAGCAAUAUUACGGCGA | -0.209 ± 0.097 | -0.301 ± 0.13 |
| AGGAAGCAAUAUUACGGCUG | -0.459 ± 0.13 | -0.0568 ± 0.15 |
| AGGAAGCAAUAUUACGGGUC | -3 ± 0.32 | -2.31 ± 0.29 |
| AGGAAGCAAUAUUACGGUCA | -0.983 ± 0.086 | 0.202 ± 0.091 |
| AGGAAGCAAUAUUACGGUCG | -0.601 ± 0.1 | 0.213 ± 0.14 |
| AGGAAGCAAUAUUACGGUGA | -2.15 ± 0.09 | -1.23 ± 0.088 |
| AGGAAGCAAUAUUACGGUUU | -2.13 ± 0.085 | -0.557 ± 0.1 |
| AGGAAGCAAUAUUACGUACA | -1.08 ± 0.065 | -0.404 ± 0.088 |
| AGGAAGCAAUAUUACGUACU | -1.76 ± 0.12 | -0.989 ± 0.19 |
| AGGAAGCAAUAUUACGUAGC | – | -1.62 ± 0.28 |
| AGGAAGCAAUAUUACGUGAA | -2.53 ± 0.35 | -1.97 ± 0.24 |
| AGGAAGCAAUAUUACGUUAA | -3.22 ± 0.18 | -1.72 ± 0.12 |
| AGGAAGCAAUAUUACGUUUC | -3.65 ± 0.33 | -1.86 ± 0.36 |
| AGGCAGCAAUAUUACGAAGA | -1.96 ± 0.29 | -1.12 ± 0.18 |
| AGGCAGCAAUAUUACGAAUG | -1.83 ± 0.17 | -1.73 ± 0.2 |
| AGGCAGCAAUAUUACGACCC | -0.357 ± 0.31 | -0.702 ± 0.5 |
| AGGCAGCAAUAUUACGACCG | 0.153 ± 0.071 | 0.0303 ± 0.085 |
| AGGCAGCAAUAUUACGACGU | -0.0258 ± 0.11 | 0.539 ± 0.087 |
| AGGCAGCAAUAUUACGAGGC | -3.43 ± 0.29 | -1.67 ± 0.22 |
| AGGCAGCAAUAUUACGAGUG | -3.63 ± 0.28 | -1.96 ± 0.18 |
| AGGCAGCAAUAUUACGAUAA | -1.82 ± 0.11 | -2.3 ± 0.16 |

| Sequence | self-splicing fitness (ln) (30 °C) | self-splicing fitness (ln) (37 °C) |
| --- | --- | --- |
| AGGCAGCAAUAUUACGAUUG | -3.13 ± 0.17 | -2.4 ± 0.22 |
| AGGCAGCAAUAUUACGCUUG | -2.81 ± 0.17 | -2.12 ± 0.23 |
| AGGCAGCAAUAUUACGGCAG | -1.29 ± 0.1 | -0.578 ± 0.12 |
| AGGCAGCAAUAUUACGGGCC | -2.17 ± 0.29 | -1.52 ± 0.26 |
| AGGCAGCAAUAUUACGGGGA | – | -3.03 ± 0.23 |
| AGGCAGCAAUAUUACGGUAC | -3.68 ± 0.21 | -2.65 ± 0.2 |
| AGGCAGCAAUAUUACGGUGU | -2.38 ± 0.13 | -1.73 ± 0.15 |
| AGGCAGCAAUAUUACGUAAA | -2 ± 0.085 | -0.673 ± 0.099 |
| AGGCAGCAAUAUUACGUAUC | -2.26 ± 0.16 | -0.296 ± 0.12 |
| AGGCAGCAAUAUUACGUCUU | -4.07 ± 0.25 | -2.58 ± 0.19 |
| AGGCAGCAAUAUUACGUGUG | -2.98 ± 0.11 | -1.44 ± 0.096 |
| AGGCAGCAAUAUUACGUUAU | -1.78 ± 0.08 | -1.78 ± 0.11 |
| AGGCAGCAAUAUUACGUUCA | -0.538 ± 0.08 | -0.117 ± 0.13 |
| AGGGAGCAAUAUUACGAAAU | -3.18 ± 0.35 | -1.22 ± 0.24 |
| AGGGAGCAAUAUUACGACCA | -1.14 ± 0.18 | -0.171 ± 0.19 |
| AGGGAGCAAUAUUACGACUU | -1.41 ± 0.18 | 0.0129 ± 0.18 |
| AGGGAGCAAUAUUACGAGUA | -2.7 ± 0.31 | -1.76 ± 0.2 |
| AGGGAGCAAUAUUACGCAUA | -2.22 ± 0.2 | -2.63 ± 0.33 |
| AGGGAGCAAUAUUACGCUAA | – | -2.1 ± 0.49 |
| AGGGAGCAAUAUUACGCUCA | -1.16 ± 0.11 | -1.14 ± 0.13 |
| AGGGAGCAAUAUUACGCUGC | -3.96 ± 0.29 | -2.35 ± 0.23 |
| AGGGAGCAAUAUUACGGACA | -2.85 ± 0.35 | -2.56 ± 0.29 |
| AGGGAGCAAUAUUACGGAGG | – | -1.74 ± 0.43 |
| AGGGAGCAAUAUUACGGGUA | -3.37 ± 0.21 | -2.64 ± 0.17 |
| AGGGAGCAAUAUUACGGUAC | -2.99 ± 0.31 | -2.67 ± 0.3 |

| Sequence | self-splicing fitness (ln) (30 °C) | self-splicing fitness (ln) (37 °C) |
| --- | --- | --- |
| AGGGAGCAAUAUUACGGUCU | -1.67 ± 0.21 | -0.696 ± 0.21 |
| AGGGAGCAAUAUUACGUCAU | -3.06 ± 0.28 | -2.74 ± 0.31 |
| AGGGAGCAAUAUUACGUGAG | -3.15 ± 0.26 | -2.56 ± 0.24 |
| AGGGAGCAAUAUUACGUGCU | -3.8 ± 0.3 | -1.92 ± 0.25 |
| AGGGAGCAAUAUUACGUGGU | – | -3.13 ± 0.4 |
| AGGGAGCAAUAUUACGUUGA | – | -2.8 ± 0.24 |
| AGGGAGCAAUAUUACGUUGU | -3.01 ± 0.18 | -2.9 ± 0.2 |
| AGGUAGCAAUAUUACGAACC | -0.58 ± 0.025 | -0.294 ± 0.041 |
| AGGUAGCAAUAUUACGAGAG | -3.887 ± 0.03 | -2.71 ± 0.039 |
| AGGUAGCAAUAUUACGAGGU | -3.749 ± 0.029 | -2.49 ± 0.039 |
| AGGUAGCAAUAUUACGAUCC | -0.0773 ± 0.022 | 0.212 ± 0.039 |
| AGGUAGCAAUAUUACGAUCG | -0.106 ± 0.015 | 0.121 ± 0.035 |
| AGGUAGCAAUAUUACGAUGG | -3.633 ± 0.029 | -2.57 ± 0.042 |
| AGGUAGCAAUAUUACGCAAA | -2.317 ± 0.023 | -1.37 ± 0.035 |
| AGGUAGCAAUAUUACGCCGA | -0.983 ± 0.019 | -0.334 ± 0.034 |
| AGGUAGCAAUAUUACGCCUU | -4.13 ± 0.038 | -2.87 ± 0.048 |
| AGGUAGCAAUAUUACGCUAC | -3.78 ± 0.047 | -2.71 ± 0.059 |
| AGGUAGCAAUAUUACGGCGG | -1.955 ± 0.016 | -1.11 ± 0.034 |
| AGGUAGCAAUAUUACGGCUG | -1.13 ± 0.016 | -1 ± 0.037 |
| AGGUAGCAAUAUUACGGGUC | -3.64 ± 0.03 | -2.96 ± 0.046 |
| AGGUAGCAAUAUUACGGUUA | -0.977 ± 0.016 | -0.509 ± 0.033 |
| AGGUAGCAAUAUUACGGUUU | -0.613 ± 0.012 | -0.252 ± 0.033 |
| AGGUAGCAAUAUUACGUAAU | -1.908 ± 0.015 | -0.958 ± 0.034 |
| AGGUAGCAAUAUUACGUAGU | -3.123 ± 0.017 | -1.62 ± 0.033 |
| AGGUAGCAAUAUUACGUCUG | -0.641 ± 0.013 | -0.161 ± 0.033 |

| Sequence | self-splicing fitness (ln) (30 °C) | self-splicing fitness (ln) (37 °C) |
| --- | --- | --- |
| AGUAAGCAAUAUUACGAACG | -0.785 ± 0.14 | -0.209 ± 0.18 |
| AGUAAGCAAUAUUACGACAC | -1.58 ± 0.19 | -0.792 ± 0.17 |
| AGUAAGCAAUAUUACGACGU | -0.0587 ± 0.09 | -0.132 ± 0.087 |
| AGUAAGCAAUAUUACGAGUA | -2.91 ± 0.26 | -0.922 ± 0.16 |
| AGUAAGCAAUAUUACGCACC | -0.949 ± 0.24 | -0.969 ± 0.25 |
| AGUAAGCAAUAUUACGCGCA | -1.02 ± 0.16 | 0.0785 ± 0.16 |
| AGUAAGCAAUAUUACGCUAG | -2.83 ± 0.24 | -2.39 ± 0.23 |
| AGUAAGCAAUAUUACGGCGA | -0.491 ± 0.12 | 0.468 ± 0.17 |
| AGUAAGCAAUAUUACGUCAC | -3.26 ± 0.19 | -2.11 ± 0.17 |
| AGUAAGCAAUAUUACGUCCA | -0.878 ± 0.12 | -0.0078 ± 0.13 |
| AGUAAGCAAUAUUACGUGAU | -3.15 ± 0.2 | -2.33 ± 0.2 |
| AGUAAGCAAUAUUACGUGGG | -3.66 ± 0.26 | -1.89 ± 0.17 |
| AGUAAGCAAUAUUACGUUUU | -3.28 ± 0.14 | -2.19 ± 0.16 |
| AGUCAGCAAUAUUACGAAAG | -3.43 ± 0.23 | -1.45 ± 0.2 |
| AGUCAGCAAUAUUACGAAAU | -1.76 ± 0.078 | -0.398 ± 0.094 |
| AGUCAGCAAUAUUACGAACU | -0.853 ± 0.089 | 0.15 ± 0.11 |
| AGUCAGCAAUAUUACGACCG | 0.0414 ± 0.095 | 0.085 ± 0.13 |
| AGUCAGCAAUAUUACGACGA | -0.25 ± 0.07 | -0.283 ± 0.11 |
| AGUCAGCAAUAUUACGACUA | -0.831 ± 0.16 | 0.0945 ± 0.14 |
| AGUCAGCAAUAUUACGACUC | -3.14 ± 0.25 | -2.21 ± 0.24 |
| AGUCAGCAAUAUUACGACUG | -0.879 ± 0.055 | -0.421 ± 0.069 |
| AGUCAGCAAUAUUACGAGAA | – | -1.35 ± 0.36 |
